Data reported in patent US20220289850 (published 2022).

What was measured:
human integrin avb6 = biological target: T1, human integrin avb6 (human, UniProt P06756); assay: SPR
T1 chain 1: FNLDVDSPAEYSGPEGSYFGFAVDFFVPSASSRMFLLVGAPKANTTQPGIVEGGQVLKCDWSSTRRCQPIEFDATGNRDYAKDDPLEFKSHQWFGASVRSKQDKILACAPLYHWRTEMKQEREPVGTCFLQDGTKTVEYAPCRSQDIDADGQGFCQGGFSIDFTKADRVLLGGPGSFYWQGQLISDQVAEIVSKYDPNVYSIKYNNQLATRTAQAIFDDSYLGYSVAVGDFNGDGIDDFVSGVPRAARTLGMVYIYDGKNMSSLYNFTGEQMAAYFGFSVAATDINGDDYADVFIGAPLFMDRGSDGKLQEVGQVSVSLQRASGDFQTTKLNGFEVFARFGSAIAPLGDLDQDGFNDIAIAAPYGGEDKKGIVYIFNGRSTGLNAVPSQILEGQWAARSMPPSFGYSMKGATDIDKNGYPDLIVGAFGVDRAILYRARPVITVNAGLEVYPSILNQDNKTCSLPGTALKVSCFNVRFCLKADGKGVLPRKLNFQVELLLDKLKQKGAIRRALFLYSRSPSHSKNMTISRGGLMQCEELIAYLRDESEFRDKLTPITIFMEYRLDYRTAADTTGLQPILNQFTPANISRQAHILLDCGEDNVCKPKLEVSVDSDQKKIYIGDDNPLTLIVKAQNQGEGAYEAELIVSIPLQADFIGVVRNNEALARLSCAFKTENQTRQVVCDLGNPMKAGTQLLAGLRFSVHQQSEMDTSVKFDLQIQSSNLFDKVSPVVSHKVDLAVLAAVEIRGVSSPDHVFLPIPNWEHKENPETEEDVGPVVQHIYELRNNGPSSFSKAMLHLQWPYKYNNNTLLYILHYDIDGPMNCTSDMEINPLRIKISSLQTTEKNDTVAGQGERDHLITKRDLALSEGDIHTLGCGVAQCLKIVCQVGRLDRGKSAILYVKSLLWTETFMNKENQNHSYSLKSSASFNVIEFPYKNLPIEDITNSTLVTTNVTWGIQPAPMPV
T1 chain 2: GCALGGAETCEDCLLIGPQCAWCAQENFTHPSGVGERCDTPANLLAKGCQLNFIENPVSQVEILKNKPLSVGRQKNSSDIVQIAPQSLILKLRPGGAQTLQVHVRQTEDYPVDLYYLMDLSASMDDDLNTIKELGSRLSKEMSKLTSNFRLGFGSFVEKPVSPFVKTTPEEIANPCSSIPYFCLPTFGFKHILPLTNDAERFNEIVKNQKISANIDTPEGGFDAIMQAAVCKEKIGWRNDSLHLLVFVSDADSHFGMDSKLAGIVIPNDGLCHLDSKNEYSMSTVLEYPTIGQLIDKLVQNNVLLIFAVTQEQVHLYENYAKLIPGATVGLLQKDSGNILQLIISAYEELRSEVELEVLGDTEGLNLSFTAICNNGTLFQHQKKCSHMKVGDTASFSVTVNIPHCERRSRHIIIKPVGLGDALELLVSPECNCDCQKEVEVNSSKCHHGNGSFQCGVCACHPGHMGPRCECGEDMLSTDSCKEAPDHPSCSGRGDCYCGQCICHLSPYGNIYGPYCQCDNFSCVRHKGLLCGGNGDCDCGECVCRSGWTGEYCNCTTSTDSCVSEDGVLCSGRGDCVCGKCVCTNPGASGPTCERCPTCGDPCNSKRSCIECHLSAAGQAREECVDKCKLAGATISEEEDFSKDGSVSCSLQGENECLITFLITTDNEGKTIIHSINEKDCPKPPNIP

human integrin avb5 = biological target: T2, human integrin avb5 (human, UniProt P06756); assay: FACS HEK cells
T2 chain 1: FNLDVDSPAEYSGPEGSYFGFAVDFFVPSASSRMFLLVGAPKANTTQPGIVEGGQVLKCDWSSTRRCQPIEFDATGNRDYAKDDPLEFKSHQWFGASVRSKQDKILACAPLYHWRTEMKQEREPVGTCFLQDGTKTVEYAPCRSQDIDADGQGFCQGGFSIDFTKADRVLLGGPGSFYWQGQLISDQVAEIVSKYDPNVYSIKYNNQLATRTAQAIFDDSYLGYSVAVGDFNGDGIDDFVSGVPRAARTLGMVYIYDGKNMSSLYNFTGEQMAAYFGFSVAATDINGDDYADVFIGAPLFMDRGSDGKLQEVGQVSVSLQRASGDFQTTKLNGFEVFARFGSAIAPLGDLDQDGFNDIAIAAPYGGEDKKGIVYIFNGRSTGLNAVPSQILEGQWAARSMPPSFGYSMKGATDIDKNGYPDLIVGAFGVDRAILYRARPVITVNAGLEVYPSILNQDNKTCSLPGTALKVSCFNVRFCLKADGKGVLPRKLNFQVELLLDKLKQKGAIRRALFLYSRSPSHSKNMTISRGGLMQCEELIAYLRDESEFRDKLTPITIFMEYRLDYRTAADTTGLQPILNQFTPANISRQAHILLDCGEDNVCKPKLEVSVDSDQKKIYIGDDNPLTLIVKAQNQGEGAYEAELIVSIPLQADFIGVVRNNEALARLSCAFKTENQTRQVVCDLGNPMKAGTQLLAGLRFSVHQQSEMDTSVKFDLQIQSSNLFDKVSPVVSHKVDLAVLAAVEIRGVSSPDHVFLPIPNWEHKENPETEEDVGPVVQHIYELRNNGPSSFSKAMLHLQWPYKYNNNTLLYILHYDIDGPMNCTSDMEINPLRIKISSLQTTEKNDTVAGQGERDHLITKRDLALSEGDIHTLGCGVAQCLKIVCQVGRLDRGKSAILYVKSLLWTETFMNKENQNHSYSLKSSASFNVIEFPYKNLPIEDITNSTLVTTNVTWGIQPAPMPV
T2 chain 2: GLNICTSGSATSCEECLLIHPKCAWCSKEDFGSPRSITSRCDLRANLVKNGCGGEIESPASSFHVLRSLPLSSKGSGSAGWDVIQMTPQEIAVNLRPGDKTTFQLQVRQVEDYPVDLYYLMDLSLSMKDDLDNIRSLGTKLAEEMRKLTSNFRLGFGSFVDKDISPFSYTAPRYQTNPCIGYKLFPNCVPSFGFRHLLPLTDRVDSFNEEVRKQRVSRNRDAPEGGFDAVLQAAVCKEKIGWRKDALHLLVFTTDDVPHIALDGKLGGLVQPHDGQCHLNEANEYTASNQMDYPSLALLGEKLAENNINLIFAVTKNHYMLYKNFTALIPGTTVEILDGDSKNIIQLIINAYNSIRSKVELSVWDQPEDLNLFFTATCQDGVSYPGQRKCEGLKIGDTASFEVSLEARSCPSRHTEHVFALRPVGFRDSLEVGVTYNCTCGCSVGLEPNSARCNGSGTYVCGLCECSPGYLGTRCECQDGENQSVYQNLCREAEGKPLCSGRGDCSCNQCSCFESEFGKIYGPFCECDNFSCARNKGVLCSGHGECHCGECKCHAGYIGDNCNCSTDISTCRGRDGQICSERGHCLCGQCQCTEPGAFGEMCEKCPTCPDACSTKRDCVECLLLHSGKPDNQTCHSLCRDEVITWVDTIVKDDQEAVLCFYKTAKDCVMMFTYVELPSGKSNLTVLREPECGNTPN

binding result (human integrin avb6): no binding | binding result (human integrin avb5): no binding
B1: ADWA11 2.4 IgG (antibody)
chain 1: EVQLVESGGGLVQPGGSLRLSCAASGFNIKDYYMNWVRQAPGKGLEWVGWIDPDQGNTIYEPKFQGRFTISADTSKNSAYLQMNSLRAEDTAVYYCARRLLMDYWGQGTLVTVSSASTKGPSVFPLAPSSKSTSGGTAALGCLVKDYFPEPVTVSWNSGALTSGVHTFPAVLQSSGLYSLSSVVTVPSSSLGTQTYICNVNHKPSNTKVDKKVEPKSCDKTHTCPPCPAPEAAGAPSVFLFPPKPKDTLMISRTPEVTCVVVDVSHEDPEVKFNWYVDGVEVHNAKTKPREEQYNSTYRVVSVLTVLHQDWLNGKEYKCKVSNKALPAPIEKTISKAKGQPREPQVYTLPPSREEMTKNQVSLTCLVKGFYPSDIAVEWESNGQPENNYKTTPPVLDSDGSFFLYSKLTVDKSRWQQGNVFSCSVMHEALHNHYTQKSLSLSPGK
chain 2: DIQMTQSPSSLSASVGDRVTITCRSTKSLSHFNGNTYLFWYQQKPGKAPKRLIYYMSSLASGVPSRFSGSGSGTDFTLTISSLQPEDFATYYCQQSLEYPFTFGGGTKVEIKRTVAAPSVFIFPPSDEQLKSGTASVVCLLNNFYPREAKVQWKVDNALQSGNSQESVTEQDSKDSTYSLSSTLTLSKADYEKHKVYACEVTHQGLSSPVTKSFNRGEC
